What was measured:
[1] = biological target: 246.F3 Env N276D (pseudovirus made in Expi293F) (HIV-1 (subtype AC, 246.F3))
[2] = biological target: 246.F3 Env N276K (pseudovirus) (HIV-1 (subtype AC, 246.F3))
[3] = biological target: 246.F3 Env, wild type (pseudovirus 246.F3-SG3 WT) (HIV-1 (subtype AC, 246.F3))
[4] = biological target: Env of the infectious molecular clone 246.F3-NL4.3+BN (HIV-1 (NL4.3) | HIV-1 (subtype AC, 246.F3))

**Q.** Which results are given for VRC01 (antibody)?
**A.** neutralisation of pseudovirus made in Expi293F cells, TZM-bl cells; fold change in sensitivity against wild-type 246.F3 [1]: 5 fold; IC50 of neutralisation of pseudovirus, TZM-bl cells (highest concentration tested 50 µg/mL) [2]: > 50 µg/mL; IC50 of neutralisation of pseudovirus, TZM-bl cells [3]: 0.204 µg/mL; IC50 of neutralisation of the 246.F3-NL4.3+BN virus stock, TZM-bl cells [4]: 0.35 µg/mL; IC80 of neutralisation of the 246.F3-NL4.3+BN virus stock, TZM-bl cells [4]: 0.85 µg/mL

From article PMC13185609
